Experimental data reported in FireProtDB (doi:10.1021/bi00042a027).
“And” between values parts separate entries of the source, which are not always exact repeats. Identical values can stand only once.

B1: Phosphoglycerate kinase, P00560 (parent)
chain: MSLSSKLSVQDLDLKDKRVFIRVDFNVPLDGKKITSNQRIVAALPTIKYVLEHHPRYVVLASHLGRPNGERNEKYSLAPVAKELQSLLGKDVTFLNDCVGPEVEAAVKASAPGSVILLENLRYHIEEEGSRKVDGQKVKASKEDVQKFRHELSSLADVYINDAFGTAHRAHSSMVGFDLPQRAAGFLLEKELKYFGKALENPTRPFLAILGGAKVADKIQLIDNLLDKVDSIIIGGGMAFTFKKVLENTEIGDSIFDKAGAEIVPKLMEKAKAKGVEVVLPVDFIIADAFSADANTKTVTDKEGIPAGWQGLDNGPESRKLFAATVAKAKTIVWNGPPGVFEFEKFAAGTKALLDEVVKSSAAGNTVIIGGGDTATVAKKYGVTDKISHVSTGGGASLELLEGKELPGVAFLSEKK

Variants of: B1
Conditions: Saccharomyces cerevisiae (strain ATCC 204508 / S288c), pH 7.5, 25 °C, GdnHCl, Sodium phosphate 20 mM, structure 3PGK, whole UniProt chain shown

| Variant | denaturant midpoint (higher = more stable) (CD, transition: 3) | denaturant m value (Fluorescence) [kcal/mol/M] | denaturant midpoint (higher = more stable) (Fluorescence) [M] | unfolding free energy (Fluorescence) [kcal/mol] | denaturant m value (CD, transition: 3) | unfolding free energy (CD, transition: 3) | ddG of mutation (higher = less stable) (CD, transition: 3) | ddG of mutation (higher = less stable) (CD) [kcal/mol] | denaturant m value (CD) [kcal/mol/M] | denaturant midpoint (higher = more stable) (CD) [M] | unfolding free energy (CD) [kcal/mol] | ddG of mutation (higher = less stable) (Fluorescence, transition: 3) | denaturant midpoint (higher = more stable) (Fluorescence, transition: 3) | unfolding free energy (Fluorescence, transition: 3) | ddG of mutation (higher = less stable) (Fluorescence) [kcal/mol] | denaturant m value (Fluorescence, transition: 3) |
| --- | --- | --- | --- | --- | --- | --- | --- | --- | --- | --- | --- | --- | --- | --- | --- | --- |
| MSLSSKLSVQDLDLKDKRVFIRVDFNVPLDGKKITSNQRIVAALPTIKYVLEHHPRYVVLASHLGRPNGERNEKYSLAPVAKELQSLLGKDVTFLNDCVGPEVEAAVKASAPGSVILLENLRYHIEEEGSRKVDGQKVKASKEDVQKFRHELSSLADVYINDAFGTAHRAHSSMVGFDLPQRAAGFLLEKELKYFGKALENPTRPFLAILGGAKVADKIQLIDNLLDKVDSIIIGGGMAFTFKKVLENTEIGDSIFDKAGAEIVPKLMEKAKAKGVEVVLPVDFIIADAFSADANTKTVTDKEGIPAGWQGLDNGPESRKLFAATVAKAKTIVYNGPPGVFEFEKFAAGTKALLDEVVKSSAAGNTVIIGGGDTATVAKKYGVTDKISHVSTGGGASLELLEGKELPGVAFLSEKK [W334Y] | 0.63 M and 0.82 M | 12.4 | 0.62 | 7.66 | – | – | – | – | – | – | – | – | – | – | – | – |
| MSLSSKLSVQDLDLKDKRVFIRVDFNVPLDGKKITSNQRIVAALPTIKYVLEHHPRYVVLASHLGRPNGERNEKYSLAPVAKELQSLLGKDVTFLNDCVGPEVEAAVKASAPGSVILLENLRYHIEEEGSRKVDGQKVKASKEDVQKFRHELSSLADVYINDAFGTAHRAHSSMVGFDLPQRAAGFLLEKELKYFGKALENPTRPFLAILGGAKVADKIQLIDNLLDKVDSIIIGGGMAFTFKKVLENTEIGDSIFDKAGAEIVPKLMEKAKAKGVEVVLPVDFIIADAFSADANTKTVTDKEGIPAGYQGLDNGPESRKLFAATVAKAKTIVWNGPPGVFEFEKFAAGTKALLDEVVKSSAAGNTVIIGGGDTATVAKKYGVTDKISHVSTGGGASLELLEGKELPGVAFLSEKK [W309Y] | 0.62 M and 0.84 M | 14.8 | 0.64 | 9.42 | 10.9 kcal/mol/M and 5.8 kcal/mol/M | 6.85 kcal/mol and 4.87 kcal/mol | – | – | – | – | – | – | – | – | – | – |
| MSLSSKLSVQDLDLKDKRVFIRVDFNVPLDGKKITSNQRIVAALPTIKYVLEHHPRYVVLASHLGRPNGERNEKYSLAPVAKELQSLLGKDVTFLNDCVGPEVEAAVKASAPGSVILLENLRYHIEEEGSRKVDGQKVKASKEDVQKFRHELSSLADVYINDAFGTAHRAHSSMVGFDLPQRAAGFLLEKELKYFGKALENPTRPFLAILGGAKVADKIQLIDNLLDKVDSIIIGGGMAFTFKKVLENTEIGDSIFDKAGAEIVPKLMEKAKAKGVEVVLPVDFIIADAFSADANTKTVTDKEGIPAGWQGLDNGPESRKLFAATVAKAKTIVWNGPPGVFEFEKFAAGTKALLDEVVKSSAAGNTVIIGGGDTATVAKKYGVTDKISHVSTGGGASLEWLEGKELPGVAFLSEKK [L400W] | 0.42 M and 0.95 M | 10.7 | 0.39 | 4.15 | 8.1 kcal/mol/M and 5.3 kcal/mol/M | 3.4 kcal/mol and 5.06 kcal/mol | 2.68 kcal/mol and 3.31 kcal/mol | – | – | – | – | – | – | – | – | – |
| MSLSSKLSVQDLDLKDKRVFIRVDFNVPLDGKKITSNQRIVAALPTIKYVLEHHPRYVVLASHLGRPNGERNEKYSLAPVAKELQSLLGKDVTFLNDCVGPEVEAAVKASAPGSVILLENLRWHIEEEGSRKVDGQKVKASKEDVQKFRHELSSLADVYINDAFGTAHRAHSSMVGFDLPQRAAGFLLEKELKYFGKALENPTRPFLAILGGAKVADKIQLIDNLLDKVDSIIIGGGMAFTFKKVLENTEIGDSIFDKAGAEIVPKLMEKAKAKGVEVVLPVDFIIADAFSADANTKTVTDKEGIPAGWQGLDNGPESRKLFAATVAKAKTIVWNGPPGVFEFEKFAAGTKALLDEVVKSSAAGNTVIIGGGDTATVAKKYGVTDKISHVSTGGGASLELLEGKELPGVAFLSEKK [Y123W] | 0.86 M | – | – | – | 3.2 kcal/mol/M | 2.72 kcal/mol | 5.65 kcal/mol | 1.29 | 13.7 | 0.42 | 5.79 | 0.57 kcal/mol and 0.91 kcal/mol | 0.4 M and 0.91 M | 4.81 kcal/mol and 3.45 kcal/mol | – | – |
| MSLSSKLSVQDLDLKDKRVFIRVDFNVPLDGKKITSNQRIVAALPTIKYVLEHHPRYVVLASHLGRPNGERNEKYSLAPVAKELQSLLGKDVTFLNDCVGPEVEAAVKASAPGSVILLENLRYHIEEEGSRKVDGQKVKASKEDVQKFRHELSSLADVYINDAFGTAHRAHSSMVGFDLPQRAAGFLLEKELKYWGKALENPTRPFLAILGGAKVADKIQLIDNLLDKVDSIIIGGGMAFTFKKVLENTEIGDSIFDKAGAEIVPKLMEKAKAKGVEVVLPVDFIIADAFSADANTKTVTDKEGIPAGWQGLDNGPESRKLFAATVAKAKTIVWNGPPGVFEFEKFAAGTKALLDEVVKSSAAGNTVIIGGGDTATVAKKYGVTDKISHVSTGGGASLELLEGKELPGVAFLSEKK [F195W] | 0.53 M | – | – | – | 10.2 kcal/mol/M | 5.44 kcal/mol | 0.64 kcal/mol | – | – | – | – | – | 0.52 M and 0.91 M | 6.3 kcal/mol and 2.68 kcal/mol | – | – |
| MSLSSKLSVQDLDLKDKRVFIRVDFNVPLDGKKITSNQRIVAALPTIKWVLEHHPRYVVLASHLGRPNGERNEKYSLAPVAKELQSLLGKDVTFLNDCVGPEVEAAVKASAPGSVILLENLRYHIEEEGSRKVDGQKVKASKEDVQKFRHELSSLADVYINDAFGTAHRAHSSMVGFDLPQRAAGFLLEKELKYFGKALENPTRPFLAILGGAKVADKIQLIDNLLDKVDSIIIGGGMAFTFKKVLENTEIGDSIFDKAGAEIVPKLMEKAKAKGVEVVLPVDFIIADAFSADANTKTVTDKEGIPAGWQGLDNGPESRKLFAATVAKAKTIVWNGPPGVFEFEKFAAGTKALLDEVVKSSAAGNTVIIGGGDTATVAKKYGVTDKISHVSTGGGASLELLEGKELPGVAFLSEKK [Y49W] | 0.41 M and 1.06 M | – | – | – | – | 4.31 kcal/mol and 3.54 kcal/mol | 1.77 kcal/mol and 4.83 kcal/mol | – | – | – | – | – | 0.42 M and 0.92 M | 5.31 kcal/mol and 3.8 kcal/mol | – | – |
| MSLSSKLSVQDLDLKDKRVFIRVDFNVPLDGKKITSNQRIVAALPTIKWVLEHHPRYVVLASHLGRPNGERNEKYSLAPVAKELQSLLGKDVTFLNDCVGPEVEAAVKASAPGSVILLENLRYHIEEEGSRKVDGQKVKASKEDVQKFRHELSSLADVYINDAFGTAHRAHSSMVGFDLPQRAAGFLLEKELKYFGKALENPTRPFLAILGGAKVADKIQLIDNLLDKVDSIIIGGGMAFTFKKVLENTEIGDSIFDKAGAEIVPKLMEKAKAKGVEVVLPVDFIIADAFSADANTKTVTDKEGIPAGYQGLDNGPESRKLFAATVAKAKTIVWNGPPGVFEFEKFAAGTKALLDEVVKSSAAGNTVIIGGGDTATVAKKYGVTDKISHVSTGGGASLELLEGKELPGVAFLSEKK [Y49W W309Y] | 0.55 M and 0.96 M | 12.7 | 0.54 | 6.84 | – | 5.93 kcal/mol and 2.34 kcal/mol | – | – | – | – | – | -0.58 kcal/mol | 0.92 M | 4.94 kcal/mol | -1.46 | 5.4 kcal/mol/M |
| MSLSSKLSVQDLDLKDKRVFIRVDFNVPLDGKKITSNQRIVAALPTIKWVLEHHPRYVVLASHLGRPNGERNEKYSLAPVAKELQSLLGKDVTFLNDCVGPEVEAAVKASAPGSVILLENLRYHIEEEGSRKVDGQKVKASKEDVQKFRHELSSLADVYINDAFGTAHRAHSSMVGFDLPQRAAGFLLEKELKYFGKALENPTRPFLAILGGAKVADKIQLIDNLLDKVDSIIIGGGMAFTFKKVLENTEIGDSIFDKAGAEIVPKLMEKAKAKGVEVVLPVDFIIADAFSADANTKTVTDKEGIPAGWQGLDNGPESRKLFAATVAKAKTIVYNGPPGVFEFEKFAAGTKALLDEVVKSSAAGNTVIIGGGDTATVAKKYGVTDKISHVSTGGGASLELLEGKELPGVAFLSEKK [Y49W W334Y] | 0.51 M and 0.91 M | – | – | – | – | 7.89 kcal/mol and 3.64 kcal/mol | – | – | – | – | – | – | 0.53 M and 0.9 M | 6.85 kcal/mol and 4.45 kcal/mol | – | 12.9 kcal/mol/M and 5 kcal/mol/M |
